Source: patent US20090047285A1 (ONCOMED PHARMACEUTICALS, published 2009)

What was measured:
[1] = biological target: T1, hNotch1 glutamate ligand binding region protein (EGF10-15), immobilized on a CM5 chip (human, UniProt P46531 375-601); test: Biacore 2000, Notch EGF10-15 protein on CM5 chip, antibody 25 to 0.20 nM
T1 construct: domain: EGF10-15
Description: (§1) The KD's of certain anti-Notch glutamate ligand binding region antibodies were determined using the Biacore 2000 system from Biacore Lifesciencse (GE Healthcare). Specifically, purified anti-Notch glutamate ligand binding region antibodies were serially diluted in 2-fold increments from 25 to 0.20 nM in PBS with HBS-P (0.01 M HEPES pH 7.4, 0.15 M NaCl, 0.005% v/v Surfactant P20). Each dilution was tested against Notch glutamate ligand binding region proteins (EGF10-15) immobilized onto a CM5 Biacore chip. The association and dissociation rates were measured and KD values determined using the Biaevaluation software program. NB in the table below means a binding affinity as measured by a KD that is at least ten-fold weaker than the notch-ligand (delta-like ligand) affinity constant.

mNotch3(EGF9-14)Fc = biological target: T2, mNotch3(EGF9-14)Fc (mouse, UniProt Q61982 352-581); test: survey of fAbs after phage display selection on mNotch3(EGF9-14)Fc
T2 construct: domain: EGF9-14; also called murine Notch3; selected antigen; not shown: Fc
T2 sequence (looked up): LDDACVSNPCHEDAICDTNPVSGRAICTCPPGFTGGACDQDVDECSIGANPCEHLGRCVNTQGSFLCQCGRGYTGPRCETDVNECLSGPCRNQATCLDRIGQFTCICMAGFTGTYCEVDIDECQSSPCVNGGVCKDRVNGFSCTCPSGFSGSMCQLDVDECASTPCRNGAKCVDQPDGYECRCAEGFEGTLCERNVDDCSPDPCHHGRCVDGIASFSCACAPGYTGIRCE

[2] = biological target: T3, hNotch3 glutamate ligand binding region protein (EGF10-15 as printed), immobilized on a CM5 chip (human, UniProt Q9UM47 351-580); test: Biacore 2000, Notch ligand binding region protein on CM5 chip, antibody 25 to 0.20 nM
T3 construct: domain: EGF10-15; For Notch3 the equivalent repeats would be EGF9-14
T3 sequence (looked up): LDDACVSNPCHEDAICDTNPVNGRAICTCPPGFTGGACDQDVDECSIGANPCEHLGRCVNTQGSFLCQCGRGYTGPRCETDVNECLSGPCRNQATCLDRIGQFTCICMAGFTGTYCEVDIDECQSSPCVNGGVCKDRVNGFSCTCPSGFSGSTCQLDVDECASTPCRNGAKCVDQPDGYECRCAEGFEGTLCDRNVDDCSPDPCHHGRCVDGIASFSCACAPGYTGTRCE
Description: as §1

[3] = biological target: T4, full length Notch1 E424Q, expressed on HEK 293 cells (human, UniProt P46531 19-2555); test: FACS on transfected HEK 293 cells (FIG. 5)
T4 construct: whole, on cells; also called mutated receptor (E424Q)

[4] = biological target: T5, mNotch1 glutamate ligand binding region protein (EGF10-15), immobilized on a CM5 chip (mouse, UniProt Q01705 375-601); test: Biacore 2000, Notch EGF10-15 protein on CM5 chip, antibody 25 to 0.20 nM
T5 construct: domain: EGF10-15
T5 sequence (looked up): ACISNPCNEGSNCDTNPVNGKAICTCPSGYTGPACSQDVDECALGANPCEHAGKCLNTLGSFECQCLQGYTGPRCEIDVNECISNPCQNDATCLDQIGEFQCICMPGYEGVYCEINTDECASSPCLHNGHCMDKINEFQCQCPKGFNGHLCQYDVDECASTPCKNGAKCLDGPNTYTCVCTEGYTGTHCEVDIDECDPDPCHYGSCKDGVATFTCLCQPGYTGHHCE
Description: as §1

T4 sequence (P46531 19-2555 E424Q): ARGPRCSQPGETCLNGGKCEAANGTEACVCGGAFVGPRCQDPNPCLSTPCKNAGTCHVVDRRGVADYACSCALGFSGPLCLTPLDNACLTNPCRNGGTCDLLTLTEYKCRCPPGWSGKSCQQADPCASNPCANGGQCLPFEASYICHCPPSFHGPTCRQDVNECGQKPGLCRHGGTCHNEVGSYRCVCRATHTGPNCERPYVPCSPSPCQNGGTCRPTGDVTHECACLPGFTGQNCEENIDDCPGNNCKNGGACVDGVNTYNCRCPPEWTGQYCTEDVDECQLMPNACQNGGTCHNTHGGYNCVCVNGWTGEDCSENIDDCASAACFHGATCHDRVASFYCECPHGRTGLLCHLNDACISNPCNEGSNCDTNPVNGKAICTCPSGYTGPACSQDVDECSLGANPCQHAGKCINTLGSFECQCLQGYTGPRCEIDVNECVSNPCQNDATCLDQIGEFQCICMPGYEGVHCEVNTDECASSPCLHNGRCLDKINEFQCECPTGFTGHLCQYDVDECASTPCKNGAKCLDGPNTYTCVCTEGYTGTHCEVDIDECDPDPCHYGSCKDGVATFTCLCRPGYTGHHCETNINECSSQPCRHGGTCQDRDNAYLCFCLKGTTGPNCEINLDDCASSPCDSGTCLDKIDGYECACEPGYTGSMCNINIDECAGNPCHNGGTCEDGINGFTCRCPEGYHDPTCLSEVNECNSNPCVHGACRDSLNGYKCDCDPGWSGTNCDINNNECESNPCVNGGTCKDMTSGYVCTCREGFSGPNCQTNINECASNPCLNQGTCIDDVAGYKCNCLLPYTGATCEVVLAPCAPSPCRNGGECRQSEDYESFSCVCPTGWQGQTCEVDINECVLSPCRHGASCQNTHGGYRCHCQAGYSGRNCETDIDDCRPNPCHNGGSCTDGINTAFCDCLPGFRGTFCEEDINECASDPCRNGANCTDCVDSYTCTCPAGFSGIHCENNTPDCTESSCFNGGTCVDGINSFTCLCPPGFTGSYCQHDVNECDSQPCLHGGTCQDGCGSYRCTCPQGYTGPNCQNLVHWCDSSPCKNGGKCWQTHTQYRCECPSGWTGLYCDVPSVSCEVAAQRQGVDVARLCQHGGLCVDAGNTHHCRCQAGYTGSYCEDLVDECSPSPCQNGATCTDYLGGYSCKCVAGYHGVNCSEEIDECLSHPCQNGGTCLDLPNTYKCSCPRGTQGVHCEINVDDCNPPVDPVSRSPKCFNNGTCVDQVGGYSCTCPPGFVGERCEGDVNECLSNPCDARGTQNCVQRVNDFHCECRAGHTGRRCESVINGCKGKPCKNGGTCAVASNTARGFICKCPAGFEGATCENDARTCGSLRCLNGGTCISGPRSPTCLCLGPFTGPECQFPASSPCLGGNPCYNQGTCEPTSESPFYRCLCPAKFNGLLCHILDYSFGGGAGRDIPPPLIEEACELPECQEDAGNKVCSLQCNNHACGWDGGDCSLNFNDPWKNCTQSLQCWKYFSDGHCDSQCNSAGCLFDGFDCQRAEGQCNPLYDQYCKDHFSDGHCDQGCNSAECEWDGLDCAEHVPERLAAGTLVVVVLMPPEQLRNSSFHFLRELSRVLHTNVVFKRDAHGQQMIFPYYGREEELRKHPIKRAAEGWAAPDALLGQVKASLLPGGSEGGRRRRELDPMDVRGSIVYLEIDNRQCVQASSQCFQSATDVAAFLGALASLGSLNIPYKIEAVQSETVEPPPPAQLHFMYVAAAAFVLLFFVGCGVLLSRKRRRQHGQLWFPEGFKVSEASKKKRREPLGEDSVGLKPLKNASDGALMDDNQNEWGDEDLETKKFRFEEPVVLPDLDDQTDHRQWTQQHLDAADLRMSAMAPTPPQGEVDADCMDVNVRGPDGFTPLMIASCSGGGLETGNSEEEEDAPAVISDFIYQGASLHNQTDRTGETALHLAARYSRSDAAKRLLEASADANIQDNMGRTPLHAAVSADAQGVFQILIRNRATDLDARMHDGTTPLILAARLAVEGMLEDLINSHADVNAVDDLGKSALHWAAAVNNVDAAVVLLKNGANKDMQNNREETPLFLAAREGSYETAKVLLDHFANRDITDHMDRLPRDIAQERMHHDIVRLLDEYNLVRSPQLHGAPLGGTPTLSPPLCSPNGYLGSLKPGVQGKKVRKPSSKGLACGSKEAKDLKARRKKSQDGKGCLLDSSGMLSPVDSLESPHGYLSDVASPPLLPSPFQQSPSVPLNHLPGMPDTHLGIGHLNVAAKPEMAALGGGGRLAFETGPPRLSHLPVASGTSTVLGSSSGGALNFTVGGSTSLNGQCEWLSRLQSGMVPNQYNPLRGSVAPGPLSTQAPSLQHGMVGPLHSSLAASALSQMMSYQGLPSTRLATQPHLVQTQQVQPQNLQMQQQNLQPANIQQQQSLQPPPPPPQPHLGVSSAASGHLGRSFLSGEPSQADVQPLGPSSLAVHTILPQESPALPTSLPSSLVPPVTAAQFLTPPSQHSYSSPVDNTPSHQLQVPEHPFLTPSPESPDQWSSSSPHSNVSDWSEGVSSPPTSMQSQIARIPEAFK

B1: 122R5 (Fab, V domains shown)
VH: QVQLVESGGGLVQPGGSLRLSCAASGFTFSDNAIHWVRQAPGKGLEWVSAISSYGSGTYYADSVKGRFTISRDNSKNTLYLQMNSLRAEDTAVYYCARPGFQFSFTFMDIWGQGTLVTVSS
VL: DIELTQPPSVSVAPGQTARISCSGDALGSKYASWYQQKPGQAPVLVIYDDKNRPSGIPERFSGSNSGNTATLTISGTQAEDEADYYCQSWDGKSKVVFGGGTKLTVLG
notes: Human fAb from phage display; also called fAb122R5; lead fAb, 122R5
Question: Which results are given for B1?
Answer: Kd [1]: 4.25 nM; binding result (mNotch3(EGF9-14)Fc): binds; Kd [2]: < 0.1 nM; binding result [3]: no binding

B2: 90R21 (antibody, V domains shown)
VH: EVQLLESGGGLVQPGGSLRLSCAASGFTFSNYGMSWVRQAPGKGLEWVSSISGYGSNTYYADSVKGRFTISRDNSKNTLYLQMNSLRAEDTAVYYCARISQQAVWGQGTLVTVSS
VL: QSALTQPASVSGSPGQSITISCTGTSSDIGGYQYVSWYQQHPGKAPKLMIYYVSNRPSGVSNRFSGSKSGNTASLTISGLQAEDEADYYCQSADSSSWVFGGGTKLTVLG
notes: also called ATCC deposit No. PTA-8909
Question: With B2 as the binder, how does the Kd [4] read?
Answer: Its Kd is 0.25 nM.

Question: And the Kd [1]?
Answer: Its Kd is less than 0.1 nM.
